Results taken from patent US20180346602A1.

Assays:
[1] = molecular target: anti-Dig antibody (IgG1 subclass with mutations P329G/L234A/L235A) [IgG part: P01857]; assay: sandwich ELISA assay D; tracer M1.7.10-Dig; analyte conc. not printed (row 1 of 8)
target antibodies [2] = assay: depletion of target antibody from sample; concentration before depletion 30.00 µg/mL
target antibodies [3] = assay: depletion of target antibody from sample; concentration before depletion 10.00 µg/mL
[4] = molecular target: anti-VEGF/ANG2 antibody (IgG1 subclass with mutations P329G/L234A/L235A) [IgG part: P01857]; assay: sandwich ELISA assay E; tracer M1.7.10-Dig; analyte 2) at 3.124 ng/mL
[5] = molecular target: anti-Dig antibody (IgG1 subclass with mutations P329G/L234A/L235A) [IgG part: P01857]; assay: sandwich ELISA assay D; tracer M1.19.31-Dig; analyte conc. not printed (row 2 of 8)
[6] = molecular target: anti-Dig antibody (IgG1 subclass with mutations P329G/L234A/L235A) [IgG part: P01857]; assay: sandwich ELISA assay D; tracer M1.7.10-Dig; analyte conc. not printed (row 4 of 8)
[7] = molecular target: anti-VEGF/ANG2 antibody (IgG1 subclass with mutations P329G/L234A/L235A/I253A/H310A/H435A) [IgG part: P01857]; assay: sandwich ELISA assay E; tracer M1.7.10-Dig; analyte 1) at 50 ng/mL
[8] = molecular target: anti-VEGF/ANG2 antibody (IgG1 subclass with mutations P329G/L234A/L235A/I253A/H310A/H435A) [IgG part: P01857]; assay: sandwich ELISA assay E; tracer M1.7.10-Dig; analyte 1) at 25 ng/mL
[9] = molecular target: anti-VEGF/ANG2 antibody (IgG1 subclass with mutations P329G/L234A/L235A) [IgG part: P01857]; assay: sandwich ELISA assay E; tracer M1.7.10-Dig; analyte 2) at 12.5 ng/mL
[10] = molecular target: anti-VEGF/ANG2 antibody (IgG1 subclass with mutations P329G/L234A/L235A/I253A/H310A/H435A) [IgG part: P01857]; assay: sandwich ELISA assay E; tracer M1.7.10-Dig; analyte 1) at 100 ng/mL
target antibodies [11] = assay: depletion of target antibody from sample; concentration before depletion 0.30 µg/mL
[12] = molecular target: anti-VEGF/ANG2 antibody (IgG1 subclass with mutations P329G/L234A/L235A) [IgG part: P01857]; assay: sandwich ELISA assay E; tracer M1.7.10-Dig; analyte 2) at 100 ng/mL
target antibodies [13] = assay: depletion of target antibody from sample; concentration before depletion 1.00 µg/mL
[14] = molecular target: anti-Dig antibody (IgG1 subclass with mutations P329G/L234A/L235A) [IgG part: P01857]; assay: sandwich ELISA assay D; tracer M1.7.10-Dig; analyte conc. not printed (row 2 of 8)
[15] = molecular target: anti-VEGF/ANG2 antibody (IgG1 subclass with mutations P329G/L234A/L235A) [IgG part: P01857]; assay: sandwich ELISA assay E; tracer M1.7.10-Dig; analyte 2) at 1.5625 ng/mL
[16] = molecular target: anti-Dig antibody (IgG1 subclass with mutations P329G/L234A/L235A) [IgG part: P01857]; assay: sandwich ELISA assay D; tracer M1.7.10-Dig; analyte conc. not printed (row 8 of 8)
[17] = molecular target: anti-VEGF/ANG2 antibody (IgG1 subclass with mutations P329G/L234A/L235A/I253A/H310A/H435A) [IgG part: P01857]; assay: sandwich ELISA assay E; tracer M1.7.10-Dig; analyte 1) at 1.5625 ng/mL
[18] = molecular target: anti-Dig antibody (IgG1 subclass with mutations P329G/L234A/L235A) [IgG part: P01857]; assay: sandwich ELISA assay D; tracer M1.7.10-Dig; analyte conc. not printed (row 3 of 8)
[19] = molecular target: anti-Dig antibody (IgG1 subclass with mutations P329G/L234A/L235A) [IgG part: P01857]; assay: sandwich ELISA assay D; tracer M1.7.10-Dig; analyte conc. not printed (row 6 of 8)
[20] = molecular target: anti-Dig antibody (IgG1 subclass with mutations P329G/L234A/L235A) [IgG part: P01857]; assay: sandwich ELISA assay D; tracer M1.19.31-Dig; analyte conc. not printed (row 4 of 8)
[21] = molecular target: anti-VEGF/ANG2 antibody (wild-type IgG1 subclass) (human) [IgG part: P01857]; assay: sandwich ELISA assay C; capture on SA plate; tracer FcγRI-Dig; analyte 6 ng/mL
[22] = molecular target: anti-VEGF/ANG2 antibody (wild-type IgG1 subclass) (human) [IgG part: P01857]; assay: sandwich ELISA assay B; capture on SA plate; tracer M1.7.10-Dig; analyte 100 ng/mL
[23] = molecular target: anti-VEGF/ANG2 antibody (wild-type IgG1 subclass) (human) [IgG part: P01857]; assay: sandwich ELISA assay B; capture on SA plate; tracer M1.7.10-Dig; analyte 3 ng/mL
[24] = molecular target: anti-VEGF/ANG2 antibody (wild-type IgG1 subclass) (human) [IgG part: P01857]; assay: sandwich ELISA assay B; capture on SA plate; tracer M1.7.10-Dig; analyte 0 ng/mL (blank)
[25] = molecular target: anti-VEGF/ANG2 antibody (wild-type IgG1 subclass) (human) [IgG part: P01857]; assay: sandwich ELISA assay C; capture on SA plate; tracer FcγRI-Dig; analyte 0 ng/mL (blank)

B1: anti-variant (human) Fc-region antibody M1.3.17 (antibody, V domains shown)
VH: EVKLLESGGGLVQPGGSLKLSCAASGIDFRRYWMNWVRQAPGKGLEWIGEIDPDSSTINYTPSLKDKFIISRDNAKNTMYLQMRKVRSEDTALYYCARPYDYGAWFAYWGQGTLVTVSA
VL: QAVVTQESALTTSPGETVTLTCRSTTGAVTTSNYANWVQEKPDHLFTGLIGGTNKRAPGVPARFSGSLIGDKAALTITGAQTEDEAIYFCALWYSDHWVFGGGTKLTVL
[1]
  signal 10% cynomolgus serum [OD405 nm]: 2.12 OD405 nm
  signal 10% human serum [OD405 nm]: 2.66 OD405 nm
  signal buffer [OD405 nm]: 0.053 OD405 nm
Target antibodies [2]
  concentration after depletion: 0.008 µg/mL
  recovery [%]: 0.027%
Target antibodies [3]
  concentration after depletion: 0.0017 µg/mL
  recovery [%]: 0.017%
[4]
  signal [OD405 nm]: 0.316 OD405 nm
[5]
  signal 10% cynomolgus serum [OD405 nm]: 0.872 OD405 nm
  signal 10% human serum [OD405 nm]: 2.14 OD405 nm
  signal buffer [OD405 nm]: 0.041 OD405 nm
[6]
  signal 10% cynomolgus serum [OD405 nm]: 0.194 OD405 nm
  signal 10% human serum [OD405 nm]: 2.48 OD405 nm
  signal buffer [OD405 nm]: 0.032 OD405 nm
[7]
  signal [OD405 nm]: 1.95 OD405 nm
[8]
  signal [OD405 nm]: 1.6 OD405 nm
[9]
  signal [OD405 nm]: 0.96 OD405 nm
[10]
  signal [OD405 nm]: 2.29 OD405 nm
Target antibodies [11]
  concentration after depletion: 0.0002 µg/mL
  recovery [%]: 0.065%
[12]
  signal [OD405 nm]: 2.27 OD405 nm
Target antibodies [13]
  concentration after depletion: 0.0007 µg/mL
  recovery [%]: 0.067%
[14]
  signal 10% cynomolgus serum [OD405 nm]: 1.18 OD405 nm
  signal 10% human serum [OD405 nm]: 2.55 OD405 nm
  signal buffer [OD405 nm]: 0.038 OD405 nm
[15]
  signal [OD405 nm]: 0.187 OD405 nm
[16]
  signal 10% cynomolgus serum [OD405 nm]: 0.044 OD405 nm
  signal 10% human serum [OD405 nm]: 2.51 OD405 nm
  signal buffer [OD405 nm]: 0.031 OD405 nm
[17]
  signal [OD405 nm]: 0.224 OD405 nm
[18]
  signal 10% cynomolgus serum [OD405 nm]: 0.485 OD405 nm
  signal 10% human serum [OD405 nm]: 2.51 OD405 nm
  signal buffer [OD405 nm]: 0.037 OD405 nm
[19]
  signal 10% cynomolgus serum [OD405 nm]: 0.065 OD405 nm
  signal 10% human serum [OD405 nm]: 2.53 OD405 nm
  signal buffer [OD405 nm]: 0.032 OD405 nm
[20]
  signal 10% cynomolgus serum [OD405 nm]: 0.162 OD405 nm
  signal 10% human serum [OD405 nm]: 1.73 OD405 nm
  signal buffer [OD405 nm]: 0.037 OD405 nm

B2: anti-AAA variant Fc-region antibody M1.6.22 (antibody, V domains shown)
VH: EVQLVESGGDLVKPGGSLKLSCAASGFTFSSYGMSWVRQTPDKRLEWVATISSGGSYIYYPDSVKGRFTISRDNAKNTLYLQMSSLKSEDTAMYYCARLGMITTGYAMDYWGQGTSVTVSS
VL: DVLMTQTPLSLPVSLGDQASISCRSSQTIVHSTGHTYLEWFLQKPGQSPKLLIYKVSNRFSGVPDRFSGSGSGTDFTLKISRVEAEDLGVYYCFQGSHVPYTFGGGTKLEIK
Target antibodies [2]
  concentration after depletion: 0.0054 µg/mL
  recovery [%]: 0.018%
Target antibodies [3]
  concentration after depletion: 0.0005 µg/mL
  recovery [%]: 0.005%
[21]
  signal [OD405 nm]: 0.064 OD405 nm
[22]
  signal [OD405 nm]: 0.061 OD405 nm
[23]
  signal [OD405 nm]: 0.037 OD405 nm
[24]
  signal [OD405 nm]: 0.037 OD405 nm
Target antibodies [11]
  concentration after depletion: 0.0001 µg/mL
  recovery [%]: 0.039%
Target antibodies [13]
  concentration after depletion: 0.0003 µg/mL
  recovery [%]: 0.031%
[25]
  signal [OD405 nm]: 0.069 OD405 nm

B3: anti-variant (human) Fc-region antibody M1.7.24 (antibody, V domains shown)
VH: EVKLLESGGGLVQPGGSLKLSCAASGFDFSRYWMNWVRQAPGKGLEWIGEITPDSSTINYTPSLKDKFIISRDNAKNTLYLQMIKVRSEDTALYYCVRPYDYGAWFASWGQGTLVTVSA
VL: QAVVTQESALTTSPGETVTLTCRSSTGAVTTSNYANWVQEKPDHLFTGLIGGTNKRAPGVPARFSGSLIGDKAALTITGAQTEDEAIYFCALWYSNHWVFGGGTKLTVL
[1]
  signal 10% cynomolgus serum [OD405 nm]: 2.37 OD405 nm
  signal 10% human serum [OD405 nm]: 2.74 OD405 nm
  signal buffer [OD405 nm]: 0.062 OD405 nm
[4]
  signal [OD405 nm]: 0.298 OD405 nm
[5]
  signal 10% cynomolgus serum [OD405 nm]: 1.17 OD405 nm
  signal 10% human serum [OD405 nm]: 2.04 OD405 nm
  signal buffer [OD405 nm]: 0.051 OD405 nm
[21]
  signal [OD405 nm]: 0.057 OD405 nm
[22]
  signal [OD405 nm]: 0.047 OD405 nm
[6]
  signal 10% cynomolgus serum [OD405 nm]: 0.223 OD405 nm
  signal 10% human serum [OD405 nm]: 2.46 OD405 nm
  signal buffer [OD405 nm]: 0.034 OD405 nm
[7]
  signal [OD405 nm]: 1.94 OD405 nm
[8]
  signal [OD405 nm]: 1.55 OD405 nm
[23]
  signal [OD405 nm]: 0.033 OD405 nm
[9]
  signal [OD405 nm]: 0.884 OD405 nm
[10]
  signal [OD405 nm]: 2.31 OD405 nm
[24]
  signal [OD405 nm]: 0.039 OD405 nm
[12]
  signal [OD405 nm]: 2.22 OD405 nm
[14]
  signal 10% cynomolgus serum [OD405 nm]: 1.41 OD405 nm
  signal 10% human serum [OD405 nm]: 2.61 OD405 nm
  signal buffer [OD405 nm]: 0.046 OD405 nm
[15]
  signal [OD405 nm]: 0.172 OD405 nm
[16]
  signal 10% cynomolgus serum [OD405 nm]: 0.031 OD405 nm
  signal 10% human serum [OD405 nm]: 2.45 OD405 nm
  signal buffer [OD405 nm]: 0.033 OD405 nm
[17]
  signal [OD405 nm]: 0.208 OD405 nm
[18]
  signal 10% cynomolgus serum [OD405 nm]: 0.575 OD405 nm
  signal 10% human serum [OD405 nm]: 2.48 OD405 nm
  signal buffer [OD405 nm]: 0.039 OD405 nm
[19]
  signal 10% cynomolgus serum [OD405 nm]: 0.05 OD405 nm
  signal 10% human serum [OD405 nm]: 2.4 OD405 nm
  signal buffer [OD405 nm]: 0.031 OD405 nm
[25]
  signal [OD405 nm]: 0.073 OD405 nm
[20]
  signal 10% cynomolgus serum [OD405 nm]: 0.173 OD405 nm
  signal 10% human serum [OD405 nm]: 1.43 OD405 nm
  signal buffer [OD405 nm]: 0.037 OD405 nm
